In US20050065076:

System: C100Flag recombinant protein (Met + APP695 C-terminal fragment + Flag)
Sequence (chain, as listed by the source): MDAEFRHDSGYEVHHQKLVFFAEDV

γ3 protease in a membrane preparation from HeLa S3 cells
γ-secretase activity (cleavage of the substrate, Aβ products detected by ECL): significant γ-secretase activity remains at pH 6.0 (the pH optimum for γ-secretase activity associated with γ3 protease)
